From patent US20220389106A1 (University of Texas, published 2022)

T1: recombinant hu-EphA10 Fc chimera protein [the extracellular domain (Glu34-Ala565)] (human, UniProt Q5JZY3 34-565)
T1 construct: range 34-565; Purified from 293T cells; also called hu-EphA10 Fc protein; not shown: Fc part of the chimera
T1 sequence (looked up): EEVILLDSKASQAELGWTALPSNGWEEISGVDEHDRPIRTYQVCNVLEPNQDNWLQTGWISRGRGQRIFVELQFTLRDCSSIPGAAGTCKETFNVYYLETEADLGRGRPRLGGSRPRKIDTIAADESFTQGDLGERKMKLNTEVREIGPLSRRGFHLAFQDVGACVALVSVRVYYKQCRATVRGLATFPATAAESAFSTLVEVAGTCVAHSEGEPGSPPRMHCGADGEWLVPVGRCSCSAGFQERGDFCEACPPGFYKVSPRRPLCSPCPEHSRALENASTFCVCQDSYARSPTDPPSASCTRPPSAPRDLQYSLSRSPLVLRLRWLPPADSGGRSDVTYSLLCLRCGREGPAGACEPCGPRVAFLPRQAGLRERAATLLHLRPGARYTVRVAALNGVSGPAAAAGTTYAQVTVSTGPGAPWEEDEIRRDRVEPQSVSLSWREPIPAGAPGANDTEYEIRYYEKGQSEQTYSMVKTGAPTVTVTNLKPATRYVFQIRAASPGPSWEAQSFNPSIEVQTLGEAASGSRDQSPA

B1: anti-hu-EphA10 antibody Clone 8 (antibody, IgG1, V domains shown)
VH: QVQLQQSGPELVKPGPLVKISCKASGYTFTSYDITWVKQRPGQGLEWIGWIYPGDGSTKYNEKFKGKATLTADKSSSTAYMQLSSLTSENSAVYFCARGGRLPYFDYWGQGTTLTVSS
VL: NIVLTQSPASLAVSLGQRATISCRASESVDSYGNSFMHWYQQKPGQPPKLLIYLASNLESAVPARFSGSGSRTDFTLTIDPVEADDAATYYCQQNNEYPWTFGGGTKLEIK
B2: anti-hu-EphA10 antibody Clone 9 (antibody, IgG1, V domains shown)
VH: QVQLQQSGAELMKPGASVKISCKATGYTFSTYWIEWVKQRPGHGLEWIGEILPGSGRTNYKEKFKDKATFTANTSSTTAYMQLSSLTSEDSAVYYCAIDWYWGQGTTLTVSS
VL: QIVLTQSPAIMSASPGEKVTITCSASSSVSYMYWFQQKPGTSPKLWIYSTSNLASGVPARFSGSGSGTSYSLTISRMEAEDAATYYCQQRNSYPPTFGGGTKLEIK
notes: also called anti-EphA10 (clone 9); anti-EphA10 (clone 9)-pHrodo
B3: anti-hu-EphA10 antibody Clone 4 (antibody, IgG1, V domains shown)
VH: EVKLEESGGGLVQPGGSMKLSCVASGFTFSYYWMNWVRQSPEKGLEWVAEIRLKSNNYATHYAESVKGRFTISRDDSKSSVYLQMNNLRAEDSGIYYCTFYYGSSAWFAYWGQGTLVTVSA
VL: DIQMTQSPASLSASVGETVTITCRASENIYSYLAWYQQKQGKSPQLLVYNVKTLTEGVPSRFSGSGSGTQFSLKIDSLQPEDFGSYYCQHHYVTPPTFGAGTKLELK

Molecular target: T1, recombinant hu-EphA10 Fc chimera …
Assay: ELISA screening (FIG. 1C)

Binding result, binds:
B1
B2
B3
